Target: LRRK2 (wild type, transiently overexpressed; tagged construct not told for the experiment) (UniProt Q5S007 1-2527)
Assay: cell-based or functional assay

Chain of LRRK2 (wild type, transiently overexpressed; tagged construct not told for the experiment) (Q5S007 whole entry): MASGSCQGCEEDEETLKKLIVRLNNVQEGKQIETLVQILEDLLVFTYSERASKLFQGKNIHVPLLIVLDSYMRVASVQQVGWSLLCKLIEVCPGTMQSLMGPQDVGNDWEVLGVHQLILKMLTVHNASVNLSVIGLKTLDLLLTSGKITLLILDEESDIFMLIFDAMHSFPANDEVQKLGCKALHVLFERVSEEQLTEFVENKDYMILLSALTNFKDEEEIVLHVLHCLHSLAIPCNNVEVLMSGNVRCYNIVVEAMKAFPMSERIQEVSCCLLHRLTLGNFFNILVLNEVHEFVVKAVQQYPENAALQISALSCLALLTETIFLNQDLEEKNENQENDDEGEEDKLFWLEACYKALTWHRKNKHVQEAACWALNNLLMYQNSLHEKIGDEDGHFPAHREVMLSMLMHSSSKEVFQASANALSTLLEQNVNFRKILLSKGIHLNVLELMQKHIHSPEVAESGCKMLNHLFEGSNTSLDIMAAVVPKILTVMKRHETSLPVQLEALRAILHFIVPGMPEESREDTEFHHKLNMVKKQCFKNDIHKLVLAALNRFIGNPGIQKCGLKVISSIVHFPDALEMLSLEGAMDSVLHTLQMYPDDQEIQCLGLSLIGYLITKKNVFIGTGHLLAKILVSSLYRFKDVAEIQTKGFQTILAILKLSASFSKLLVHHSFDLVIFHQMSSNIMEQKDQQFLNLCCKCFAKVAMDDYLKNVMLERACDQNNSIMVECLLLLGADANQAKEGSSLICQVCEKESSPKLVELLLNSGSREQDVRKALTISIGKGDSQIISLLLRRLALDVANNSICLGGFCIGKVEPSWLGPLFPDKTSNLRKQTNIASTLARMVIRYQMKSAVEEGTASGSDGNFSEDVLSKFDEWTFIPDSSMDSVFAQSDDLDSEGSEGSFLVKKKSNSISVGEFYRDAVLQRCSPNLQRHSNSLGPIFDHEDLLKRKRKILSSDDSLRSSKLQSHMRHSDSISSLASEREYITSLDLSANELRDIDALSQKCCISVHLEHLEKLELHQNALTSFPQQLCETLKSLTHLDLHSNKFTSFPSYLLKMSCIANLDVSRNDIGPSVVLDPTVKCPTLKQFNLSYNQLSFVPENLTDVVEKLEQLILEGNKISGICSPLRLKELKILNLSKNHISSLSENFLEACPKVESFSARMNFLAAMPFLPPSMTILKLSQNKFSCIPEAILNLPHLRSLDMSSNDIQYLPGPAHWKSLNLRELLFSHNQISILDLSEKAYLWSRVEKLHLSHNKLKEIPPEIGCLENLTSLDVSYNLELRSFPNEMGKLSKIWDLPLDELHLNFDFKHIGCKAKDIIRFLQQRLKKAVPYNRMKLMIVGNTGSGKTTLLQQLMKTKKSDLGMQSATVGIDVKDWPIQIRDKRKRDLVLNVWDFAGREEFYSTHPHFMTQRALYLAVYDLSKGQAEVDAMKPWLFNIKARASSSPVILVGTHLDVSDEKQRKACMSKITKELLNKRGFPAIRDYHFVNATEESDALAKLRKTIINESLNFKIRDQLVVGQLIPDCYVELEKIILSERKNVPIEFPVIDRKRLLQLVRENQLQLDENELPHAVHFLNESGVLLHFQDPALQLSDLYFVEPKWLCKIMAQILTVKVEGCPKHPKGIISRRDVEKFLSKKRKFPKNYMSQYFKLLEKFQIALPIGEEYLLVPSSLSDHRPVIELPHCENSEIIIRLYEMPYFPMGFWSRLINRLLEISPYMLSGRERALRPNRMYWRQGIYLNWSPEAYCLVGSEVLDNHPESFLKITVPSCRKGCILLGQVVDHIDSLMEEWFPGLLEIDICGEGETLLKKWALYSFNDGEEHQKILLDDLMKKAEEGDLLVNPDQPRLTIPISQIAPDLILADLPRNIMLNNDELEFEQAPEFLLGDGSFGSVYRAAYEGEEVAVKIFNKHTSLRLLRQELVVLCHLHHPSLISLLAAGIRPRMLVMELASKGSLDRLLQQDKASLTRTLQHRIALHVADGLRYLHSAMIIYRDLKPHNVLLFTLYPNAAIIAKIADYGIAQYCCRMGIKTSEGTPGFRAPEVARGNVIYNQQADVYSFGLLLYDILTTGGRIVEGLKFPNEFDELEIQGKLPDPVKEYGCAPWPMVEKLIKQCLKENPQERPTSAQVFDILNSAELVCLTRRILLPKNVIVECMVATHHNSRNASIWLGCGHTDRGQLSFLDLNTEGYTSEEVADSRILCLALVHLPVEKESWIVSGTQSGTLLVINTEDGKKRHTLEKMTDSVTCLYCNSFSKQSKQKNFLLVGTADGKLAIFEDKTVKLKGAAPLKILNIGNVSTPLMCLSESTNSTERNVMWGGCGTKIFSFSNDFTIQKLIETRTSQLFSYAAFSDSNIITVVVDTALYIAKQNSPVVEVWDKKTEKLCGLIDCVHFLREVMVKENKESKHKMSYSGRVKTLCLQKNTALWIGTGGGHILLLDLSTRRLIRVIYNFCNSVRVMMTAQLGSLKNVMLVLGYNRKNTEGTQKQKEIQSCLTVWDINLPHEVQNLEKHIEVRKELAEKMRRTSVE

TOPFlash (WNT/β-catenin reporter) in HEK293T cells expressing DVL2, LRRK2 and PRICKLE1, fold of control (DVL2 with LRRK2 without PRICKLE1: ~130 fold): ~80 fold
B1: Prickle1-ECFP (natural protein, UniProt Q3U5C7 1-832, looked up)
chain: MPLEMEPKMSKLVFGCQRSSTSDDDSGCALEEYAWVPPGLRPEQIQLYFACLPEEKVPYVNSPGEKHRIKQLLYQLPPHDNEVRYCQSLSEEEKKELQVFSAQRKKEALGRGTIKLLSRAVMHAVCEQCGLQMNGGEVAVFASRAGPGVCWHPSCFVCFTCNELLVDLIYFYQDGKIHCGRHHAELLKPRCSACDEIIFADECTEAEGRHWHMKHFCCLECETVLGGQRYIMKDGRPFCCGCFESLYAEYCETCGEHIGVDHAQMTYDGQHWHATEACFSCAQCKASLLGCPFLPKQGQIYCSKTCSLGEDIHASDSSDSAFQSARSRDSRRSVRMGRSSRSADQCRQSLLLSPALNYKFPGLSGNADDTLSRKLDDVSLASRQGAGFANEEFWKARVEQEASEDPEEWAEHEDYMTQLLLKFGDKNLFQQQSSEVDPRASEHWIPDNMVTNKPEVKPNHQGLASKKYQSDMYWAQSQDGLGDSAYGSHPGPASSRRLQELDLDHGAAGYTHDQSQWYEDSLECLSDLKPEQSIRDSMDSLALSNITGASVDGESKPRPSLYSLQNFEEIEAEDCEKMSNMGTLNSSMLHRSAESLQSLNSGLCPEKILPEEKPAHLPVLRRSKSQSRPQQVKFSDDVIDNGSYDIEIRQPPMSERTRRRAYHFEERGSRPHHHRHRRSRKSRSDNALNLVTERKYSAKDRLRLYTPDNYEKFIQNKSARELQAYMQNANLYSQYAHATSDYALQNPGMNRFLGLCGEDDDSWCSSSTSSSDSEEEGYFLGQPIPQPRPQRFTYYTDDLSSPASALPTPQFTQRTTKSKKKKGHKGKNCIIS

Source: publication PMC5505151, “A proteomic analysis of LRRK2 binding partners reveals interactions with multiple signaling components of the WNT/PCP pathway” (Molecular Neurodegeneration, 2017)
